From PMC10279719 (Nature Communications, 2023)
Non-standard residues stand in square brackets, D forms with d. pY = N[C@@H](Cc1ccc(OP(=O)(O)O)cc1)C(=O)O

Experiments:
[1] = molecular target: T1, CrkII NSH3 domain (CrkII^NSH3, residues 134–191) (human, UniProt P46108-1 134-191); test: SPR; Biacore S200; CrkII^NSH3 amine coupled to CM5, peptides injected; 20 °C, HBS-TP (20 mM HEPES pH 7.4, 150 mM NaCl, 1 mM TCEP, 0.005% Tween-P20); steady-state 1:1 fit; settings: both partners purified
T1 construct: human CrkII residues 134-191, N-terminal SH3 domain

[2] = molecular target: the molecule itself; test: SEC-MALS; Superdex 200 Increase 10/300 GL, 20 mM HEPES pH 7.5, 150 mM NaCl, 1 mM TCEP, 0.5 ml/min
[3] = molecular target: T1, CrkII NSH3 domain (CrkII^NSH3, residues …); test: ITC; ternary, sequential; CrkII^NSH3 (400 μM, syringe) titrated into the peptide (16.8 µM) left in the cell after a first titration with 14-3-3ɣ; 25 °C, 20 mM HEPES pH 7.4, 150 mM NaCl, 1 mM TCEP; settings: both partners purified
[4] = molecular target: T1, CrkII NSH3 domain (CrkII^NSH3, residues …); test: SPR; Biacore S200; CrkII^NSH3 amine coupled to CM5, peptides injected; 20 °C, HBS-TP (20 mM HEPES pH 7.4, 150 mM NaCl, 1 mM TCEP, 0.005% Tween-P20); steady-state 1:1 fit; settings: both partners purified; remark: listed apart in the source
[5] = molecular target: T2, CrkII SH2 domain (CrkII^SH2, residues 6-120) (human, UniProt P46108-1 6-120, biotin (EZ-Link NHS-PEG4-Biotin, 1:1 molar ratio) where it was immobilised (a1)); test: SPR; biotinylated adapter proteins captured with a biotin CAPture kit, pY peptides as analytes; Biacore 8K+, 20 °C, HBS-TP (20 mM HEPES pH 7.4, 150 mM NaCl, 1 mM TCEP, 0.005% Tween-P20) with 2% DMSO; 1 M NaCl regeneration; steady state, 1:1 model; settings: both partners purified
T2 construct: human CrkII SH2 domain, UniProt P46108-1, residues 6-120; The His tag is TEV-cleavable and was cleaved 'when required'

[6] = molecular target: T3, Grb2 SH2 domain (Grb2^SH2) (human, UniProt P62993-1 60-152, biotin (EZ-Link NHS-PEG4-Biotin, 1:1 molar ratio) where it was immobilised (a1)); test: as above; settings: both partners purified
T3 construct: SH2 domain of human Grb2; This construct is not in the list of the methods; the other adapter constructs were made in E. coli C41 (DE3) with an N-terminal His8 tag

[7] = molecular target: T4, full length CrkII, monomer (CrkII^FL monomer) (human, UniProt P46108-1 1-304, biotin (EZ-Link NHS-PEG4-Biotin, 1:1 molar ratio) where it was immobilised (a1)); test: as above; settings: both partners purified
T4 construct: full length human CrkII, printed as UniProt P46108-1, residues 1-330

[8] = molecular target: T5, full length CrkII, dimer (CrkII^FL dimer) (human, UniProt P46108-1 1-304, biotin (EZ-Link NHS-PEG4-Biotin, 1:1 molar ratio) where it was immobilised (a1)); test: as above; settings: both partners purified
T5 construct: full length human CrkII, printed as UniProt P46108-1, residues 1-330

[9] = molecular target: T6, full length Grb2 (Grb2^FL, residues 1-217) (human, UniProt P62993-1 1-217, biotin (EZ-Link NHS-PEG4-Biotin, 1:1 molar ratio) where it was immobilised (a1)); test: as above; settings: both partners purified
T6 construct: full length human Grb2, UniProt P62993-1, residues 1-217

B1: PEAK3^54–66 peptide (Ac-PLPPPLPKKILTR-NH2) (peptide)
peptide: Ac-PLPPPLPKKILTR-NH2
notes: also called PEAK3 PRM peptide; source: synthetic peptide, bought: Mimotopes
In the case of B1, the Kd [1] is reported as 1.7 µM.

B2: PEAK2IDR1 (PEAK2 residues 802-1406) (domain or fragment, human, UniProt Q86YV5 802-1406, looked up)
chain: EDVSPSGPQQPPPLPQKKIVSRAASSPDGFFWTQGSPKPGTASPKLNLSHSETNVHDESHFSYSLSPGNRHHPVFSSSDPLEKAFKGSGHWLPAAGLAGNRGGCGSPGLQCKGAPSASSSQLSVSSQASTGSTQLQLHGLLSNISSKEGTYAKLGGLYTQSLARLVAKCEDLFMGGQKKELHFNENNWSLFKLTCNKPCCDSGDAIYYCATCSEDPGSTYAVKICKAPEPKTVSYCSPSVPVHFNIQQDCGHFVASVPSSMLSSPDAPKDPVPALPTHPPAQEQDCVVVITREVPHQTASDFVRDSAASHQAEPEAYERRVCFLLLQLCNGLEHLKEHGIIHRDLCLENLLLVHCTLQAGPGPAPAPAPAPAPAAAAPPCSSAAPPAGGTLSPAAGPASPEGPREKQLPRLIISNFLKAKQKPGGTPNLQQKKSQARLAPEIVSASQYRKFDEFQTGILIYELLHQPNPFEVRAQLRERDYRQEDLPPLPALSLYSPGLQQLAHLLLEADPIKRIRIGEAKRVLQCLLWGPRRELVQQPGTSEEALCGTLHNWIDMKRALMMMKFAEKAVDRRRGVELEDWLCCQYLASAEPGALLQSLKLLQLL
modifications: phosphorylated at the tandem site 14-3-3 motif (RAASSP) by LC MS/MS
notes: PEAK2 (SgK223, PRAG1), human, UniProt Q86YV5, residues 802-1406; Homodimer by SEC-MALS; TEV-cleavable tag
With B2 the “stoichiometry N” value [2] was 2.

B3: PEAK3^tandem peptide, non-phosphorylated (residues 54–74; Ac-PLPPPLPKKILTRTQSLPTRR-NH2) (peptide)
peptide: Ac-PLPPPLPKKILTRTQSLPTRR-NH2
notes: source: synthetic peptide, bought: Mimotopes
With B3 the Kd [3] was 0.7 µM.

B4: PEAK2^709–721 peptide (Ac-FSPPPPPPKSRHL-NH2) (peptide)
peptide: Ac-FSPPPPPPKSRHL-NH2
notes: human PEAK2 (SgK223, PRAG1) residues 709-721; also called second PRM of PEAK2; source: synthetic peptide, bought: Mimotopes
With B4 the Kd [4] was 13 µM.

B5: PEAK3 23-38-pY24 peptide (Ac-T(pY)SNLGQIRAHLLPSK-NH2) (peptide)
peptide: Ac-T[pY]SNLGQIRAHLLPSK-NH2
SMILES: CC[C@H](C)[C@H](NC(=O)[C@H](CCC(N)=O)NC(=O)CNC(=O)[C@H](CC(C)C)NC(=O)[C@H](CC(N)=O)NC(=O)[C@H](CO)NC(=O)[C@H](Cc1ccc(OP(=O)(O)O)cc1)NC(=O)[C@@H](NC(C)=O)[C@@H](C)O)C(=O)N[C@@H](CCCNC(=N)N)C(=O)N[C@@H](C)C(=O)N[C@@H](Cc1c[nH]cn1)C(=O)N[C@@H](CC(C)C)C(=O)N[C@@H](CC(C)C)C(=O)N1CCC[C@H]1C(=O)N[C@@H](CO)C(=O)N[C@@H](CCCCN)C(N)=O
notes: source: synthetic peptide, bought: Mimotopes (95% purity)
Binder B5 has a Kd [5] of 5.3 µM, a Kd [6] of 4.2 µM and a Kd [7] of 6.8 µM. The Kd [8] was 6.2 µM and the Kd [9] was 2.2 µM.
